# B1: TFG PB1 domain (amino acids 1-96), wild type (domain or fragment, human, UniProt Q92734 1-96, looked up)
# chain: MNGQLDLSGKLIIKAQLGEDIRRIPIHNEDITYDELVLMMQRVFRGKLLSNDEVTIKYKDEDGDLITIFDSSDLSFAIQCSRILKLTLFVNGQPRP
# Molecular target: the molecule itself
# Assay: SEC-MALS
protein,measurement,value
B1,stoichiometry N,8
